The target of experiment [1] is VP1 protein from GI.1 Norwalk strain (GI.1 WT) (human norovirus GI.1 Norwalk strain). Nature of the experiment: SEC; analytical size-exclusion chromatography, Superdex 200 Increase 10/300 GL in PBS, 200 µg VLPs; fractions analysed by SDS–PAGE.
The target is the same in experiment [2]. Briefly: negative staining electron microscopy; VLP samples at ~0.1 mg/mL (0.01–0.05 mg/mL when fragments were present) in 10 mM HEPES pH 7.0, 150 mM NaCl; 0.75% uranyl formate; reference-free 2D class averages.

Broadly, the stoichiometry N is the number of molecules, sites or subunits per partner or assembly. “VP1 protein from GI.1 Norwalk strain (GI.1 WT) (natural protein)”: the fraction of the sample present as VP1 dimers (rest in the void peak as non-dissociated VLPs) in experiment [1] came out at 20%. The stoichiometry N in experiment [1] and in experiment [2] was 2 in each case.

For the origin of these results see publication PMC7736355.
